Biological target: the molecule itself
Experiment: non-reducing SDS-PAGE with immunoblot

B1: His-tagged human recombinant peroxiredoxin 1 with Cys83 changed to Ser83 (natural protein)
chain: MSSGNAKIGHPAPNFKATAVMPDGQFKDISLSDYKGKYVVFFFYPLDFTFVCPTEIIAFSDRAEEFKKLNCQVIGASVDSHFSHLAWVNTPKKQGGLGPMNIPLVSDPKRTIAQDYGVLKADEGISFRGLFIIDDKGILRQITVNDLPVGRSVDETLRLVQAFQFTDKHGEVCPAGWKPGSDTIKPDVQKSKEYFSKQK
stoichiometry N: 2

Reference: article PMC8339339 (Redox Biology, 2021)
